Measurements taken from the supplement of paper PMC11908140.

B1: library; numbered along this chain (parent)
chain: MRKPRAAVGSGHRKQAASQEGRQKHAKNNSQAKPSACDGLARQPEEVVLQASVSSYHLFRDVAEVTAFRGSLLSWYDQEKRDLPWRRRAEDEMDLDRRAYAVWVSEVMLQQTQVATVINYYTGWMQKWPTLQDLASASLEEVNQLWAGLGYYSRGRRLQEGARKVVEELGGHMPRTAETLQQLLPGVGRYTAGAIASIAFGQATGVVDGNVARVLCRVRAIGADPSSTLVSQQLWGLAQQLVDPARPGDFNQAAMELGATVCTPQRPLCSQCPVESLCRARQRVEQEQLLASGSLSGSPDVEECAPNTGQCHLCLPPSEPWDQTLGVVNFPRKASRKPPREESSATCVLEQPGALGAQILLVQRPNSGLLAGLWEFPSVTWEPSEQLQRKALLQELQRWAGPLPATHLRHLGEVVHTFSHIKLTYQVYGLALEGQTPVTTVPPGARWLTQEEFHTAAVSTAMKKVFRVYQGQQPGTCMGSKRSQVSSPCSRKKPRMGQQVLDNFFRSHISTDAHSLNSAAQ

Variants of: B1
Experiment: 8OG:A repair function score (normalized; synonymous = 0, nonsense = -1) (normalized log-likelihood score); higher = more repair activity (WT-like)
Settings: with 8OG:A DNA repair reporter (GFP) in HEK-293 MUTYH KO cells
In short: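 GFP+ (repair) and GFP− bins of viable mCherry+ cells were collected at 72 h from MUTYH knockout HEK-293 cells bearing lentiviral MUTYH cDNA NNN codon-scan libraries in 10 pg/ml doxycycline, co-transfected with an 8OG:A GFP repair reporter and mCherry. Tile amplicons were sequenced, and per-tile Rosace fitness scores were normalized to a repair function score anchored on synonymous and nonsense distributions. Synonymous medians were set to 0 and nonsense to -1, with variants under 300 counts per million at the start removed.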
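Also: cells sorted at 72 h after reporter transfection.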

Compared with MRKPRAAVGSGHRKQAASQEGRQKHAKNNSQAKPSACDGLARQPEEVVLQASVSSYHLFRDVAEVTAFRGSLLSWYDQEKRDLPWRRRAEDEMDLDRRAYAVWVSEVMLQQTQVATVINYYTGWMQKWPTLQDLASASLEEVNQLWAGLGYYSRGRRLQEGARKVVEELGGHMPRTAETLQQLLPGVGRYTAGAIASIAFGQATGVVDGNVARVLCRVRAIGADPSSTLVSQQLWGLAQQLVDPARPGDFNQAAMELGATVCTPQRPLCSQCPVESLCRARQRVEQEQLLASGSLSGSPDVEECAPNTGQCHLCLPPSEPWDQTLGVVNFPRKASRKPPREESSATCVLEQPGALGAQILLVQRPNSGLLAGLWEFPSVTWEPSEQLQRKALLQELQRWAGPLPATHLRHLGEVVHTFSHIKLTYQVYGLALEGQTPVTTVPPGARWLTQEEFHTAAVSTAMKKVFRVYQGQQPGTCMGSKRSQVSSPCSRKKPRMGQQVLENFFRSHISTDAHSLNSAAQ [D502E], MRKPRAAVGSGHRKQAASQEGRQKHAKNNSQAKPSACDGLARQPEEVVLQASVSSYHLFRDVAEVTAFRGSLLSWYDQEKRDLPWRRRAEDEMDLDRRAYAVWVSEVMLQQTQVATVINYYTGWMQKWPTLQDLASASLEEVNQLWAGLGYYSRGRRLQEGARKVVEELGGHMPRTAETLQQLLPGVGRYTAGAIASIAFGQATGVVDGNVARVLCRVRAIGADPSSTLVSQQLWGLAQQLVDPARPGDFNQAAMELGATVCTPQRPLCSQCPVESLCRARQRVEQEQLLASGSLSGSPDVEECAPNTGQCHLCLPPSEPWDQTLGVVNFPRKASRKPPREESSATCVLEQPGALGAQILLVQRPNSGLLAGLWEFPSVTWEPSEQLQRKALLQELQRWAGPLPATHLRHLGEVVHTFSHIKLTYQVYGLALEGQTPVTTVPPGARWLTQEEFHTAAVSTAMKKVFRVYQGQQPGTCMGSKRSQVSSPCSRKKPRMGQQVLANFFRSHISTDAHSLNSAAQ [D502A] is higher in “8OG:A repair function score” value: -0.0204 for the first, -0.0186 for the second.

Compared with MRKPRAAVGSGHRKQAASQEGRQKHAKNNSQAKPSACDGLARQPEEVVLQASVSSYHLFRDVAEVTAFRGSLLSWYDQEKRDLPWRRRAEDEMDLDRRAYAVWVSEVMLQQTQVATVINYYTGWMQKWPTLQDLASASLEEVNQLWAGLGYYSRGRRLQEGARKVVEELGGHMPRTAETLQQLLPGVGRYTAGAIASIAFGQATGVVDGNVARVLCRVRAIGADPSSTLVSQQLWGLAQQLVDPARPGDFNQAAMELGATVCTPQRPLCSQCPVESLCRARQRVEQEQLLASGSLSGSPDVEECAPNTGQCHLCLPPSEPWDQTLGVVNFPRKASRKPPREESSATCVLEQPGALGAQILLVQRPNSGLLAGLWEFPSVTWEPSEQLQRKALLQELQRWAGPLPATHLRHLGEVVHTFSHIKLTYQVYGLALEGQTPVTTVPPGARWLTQEEFHTAAVSTAMKKVFRVYQGQQPGTCMGSKRSQVSSPCSRKKPRMGQQVLCNFFRSHISTDAHSLNSAAQ [D502C], MRKPRAAVGSGHRKQAASQEGRQKHAKNNSQAKPSACDGLARQPEEVVLQASVSSYHLFRDVAEVTAFRGSLLSWYDQEKRDLPWRRRAEDEMDLDRRAYAVWVSEVMLQQTQVATVINYYTGWMQKWPTLQDLASASLEEVNQLWAGLGYYSRGRRLQEGARKVVEELGGHMPRTAETLQQLLPGVGRYTAGAIASIAFGQATGVVDGNVARVLCRVRAIGADPSSTLVSQQLWGLAQQLVDPARPGDFNQAAMELGATVCTPQRPLCSQCPVESLCRARQRVEQEQLLASGSLSGSPDVEECAPNTGQCHLCLPPSEPWDQTLGVVNFPRKASRKPPREESSATCVLEQPGALGAQILLVQRPNSGLLAGLWEFPSVTWEPSEQLQRKALLQELQRWAGPLPATHLRHLGEVVHTFSHIKLTYQVYGLALEGQTPVTTVPPGARWLTQEEFHTAAVSTAMKKVFRVYQGQQPGTCMGSKRSQVSSPCSRKKPRMGQQVLFNFFRSHISTDAHSLNSAAQ [D502F] is lower in “8OG:A repair function score” value: -0.00279 for the first, -0.0425 for the second.

Compared with MRKPRAAVGSGHRKQAASQEGRQKHAKNNSQAKPSACDGLARQPEEVVLQASVSSYHLFRDVAEVTAFRGSLLSWYDQEKRDLPWRRRAEDEMDLDRRAYAVWVSEVMLQQTQVATVINYYTGWMQKWPTLQDLASASLEEVNQLWAGLGYYSRGRRLQEGARKVVEELGGHMPRTAETLQQLLPGVGRYTAGAIASIAFGQATGVVDGNVARVLCRVRAIGADPSSTLVSQQLWGLAQQLVDPARPGDFNQAAMELGATVCTPQRPLCSQCPVESLCRARQRVEQEQLLASGSLSGSPDVEECAPNTGQCHLCLPPSEPWDQTLGVVNFPRKASRKPPREESSATCVLEQPGALGAQILLVQRPNSGLLAGLWEFPSVTWEPSEQLQRKALLQELQRWAGPLPATHLRHLGEVVHTFSHIKLTYQVYGLALEGQTPVTTVPPGARWLTQEEFHTAAVSTAMKKVFRVYQGQQPGTCMGSKRSQVSSPCSRKKPRMGQQVRDNFFRSHISTDAHSLNSAAQ [L501R], MRKPRAAVGSGHRKQAASQEGRQKHAKNNSQAKPSACDGLARQPEEVVLQASVSSYHLFRDVAEVTAFRGSLLSWYDQEKRDLPWRRRAEDEMDLDRRAYAVWVSEVMLQQTQVATVINYYTGWMQKWPTLQDLASASLEEVNQLWAGLGYYSRGRRLQEGARKVVEELGGHMPRTAETLQQLLPGVGRYTAGAIASIAFGQATGVVDGNVARVLCRVRAIGADPSSTLVSQQLWGLAQQLVDPARPGDFNQAAMELGATVCTPQRPLCSQCPVESLCRARQRVEQEQLLASGSLSGSPDVEECAPNTGQCHLCLPPSEPWDQTLGVVNFPRKASRKPPREESSATCVLEQPGALGAQILLVQRPNSGLLAGLWEFPSVTWEPSEQLQRKALLQELQRWAGPLPATHLRHLGEVVHTFSHIKLTYQVYGLALEGQTPVTTVPPGARWLTQEEFHTAAVSTAMKKVFRVYQGQQPGTCMGSKRSQVSSPCSRKKPRMGQQVWDNFFRSHISTDAHSLNSAAQ [L501W] is lower in “8OG:A repair function score” value: 0.00197 for the first, -0.00606 for the second.

Compared with MRKPRAAVGSGHRKQAASQEGRQKHAKNNSQAKPSACDGLARQPEEVVLQASVSSYHLFRDVAEVTAFRGSLLSWYDQEKRDLPWRRRAEDEMDLDRRAYAVWVSEVMLQQTQVATVINYYTGWMQKWPTLQDLASASLEEVNQLWAGLGYYSRGRRLQEGARKVVEELGGHMPRTAETLQQLLPGVGRYTAGAIASIAFGQATGVVDGNVARVLCRVRAIGADPSSTLVSQQLWGLAQQLVDPARPGDFNQAAMELGATVCTPQRPLCSQCPVESLCRARQRVEQEQLLASGSLSGSPDVEECAPNTGQCHLCLPPSEPWDQTLGVVNFPRKASRKPPREESSATCVLEQPGALGAQILLVQRPNSGLLAGLWEFPSVTWEPSEQLQRKALLQELQRWAGPLPATHLRHLGEVVHTFSHIKLTYQVYGLALEGQTPVTTVPPGARWLTQEEFHTAAVSTAMKKVFRVYQGQQPGTCMGSKRSQVSSPCSRKKPRMGQQVVDNFFRSHISTDAHSLNSAAQ [L501V], MRKPRAAVGSGHRKQAASQEGRQKHAKNNSQAKPSACDGLARQPEEVVLQASVSSYHLFRDVAEVTAFRGSLLSWYDQEKRDLPWRRRAEDEMDLDRRAYAVWVSEVMLQQTQVATVINYYTGWMQKWPTLQDLASASLEEVNQLWAGLGYYSRGRRLQEGARKVVEELGGHMPRTAETLQQLLPGVGRYTAGAIASIAFGQATGVVDGNVARVLCRVRAIGADPSSTLVSQQLWGLAQQLVDPARPGDFNQAAMELGATVCTPQRPLCSQCPVESLCRARQRVEQEQLLASGSLSGSPDVEECAPNTGQCHLCLPPSEPWDQTLGVVNFPRKASRKPPREESSATCVLEQPGALGAQILLVQRPNSGLLAGLWEFPSVTWEPSEQLQRKALLQELQRWAGPLPATHLRHLGEVVHTFSHIKLTYQVYGLALEGQTPVTTVPPGARWLTQEEFHTAAVSTAMKKVFRVYQGQQPGTCMGSKRSQVSSPCSRKKPRMGQQVPDNFFRSHISTDAHSLNSAAQ [L501P] is higher in “8OG:A repair function score” value: 0.00157 for the first, 0.0273 for the second.

First: MRKPRAAVGSGHRKQAASQEGRQKHAKNNSQAKPSACDGLARQPEEVVLQASVSSYHLFRDVAEVTAFRGSLLSWYDQEKRDLPWRRRAEDEMDLDRRAYAVWVSEVMLQQTQVATVINYYTGWMQKWPTLQDLASASLEEVNQLWAGLGYYSRGRRLQEGARKVVEELGGHMPRTAETLQQLLPGVGRYTAGAIASIAFGQATGVVDGNVARVLCRVRAIGADPSSTLVSQQLWGLAQQLVDPARPGDFNQAAMELGATVCTPQRPLCSQCPVESLCRARQRVEQEQLLASGSLSGSPDVEECAPNTGQCHLCLPPSEPWDQTLGVVNFPRKASRKPPREESSATCVLEQPGALGAQILLVQRPNSGLLAGLWEFPSVTWEPSEQLQRKALLQELQRWAGPLPATHLRHLGEVVHTFSHIKLTYQVYGLALEGQTPVTTVPPGARWLTQEEFHTAAVSTAMKKVFRVYQGQQPGTCMGSKRSQVSSPCSRKKPRMGQQVYDNFFRSHISTDAHSLNSAAQ [L501Y]
Second: MRKPRAAVGSGHRKQAASQEGRQKHAKNNSQAKPSACDGLARQPEEVVLQASVSSYHLFRDVAEVTAFRGSLLSWYDQEKRDLPWRRRAEDEMDLDRRAYAVWVSEVMLQQTQVATVINYYTGWMQKWPTLQDLASASLEEVNQLWAGLGYYSRGRRLQEGARKVVEELGGHMPRTAETLQQLLPGVGRYTAGAIASIAFGQATGVVDGNVARVLCRVRAIGADPSSTLVSQQLWGLAQQLVDPARPGDFNQAAMELGATVCTPQRPLCSQCPVESLCRARQRVEQEQLLASGSLSGSPDVEECAPNTGQCHLCLPPSEPWDQTLGVVNFPRKASRKPPREESSATCVLEQPGALGAQILLVQRPNSGLLAGLWEFPSVTWEPSEQLQRKALLQELQRWAGPLPATHLRHLGEVVHTFSHIKLTYQVYGLALEGQTPVTTVPPGARWLTQEEFHTAAVSTAMKKVFRVYQGQQPGTCMGSKRSQVSSPCSRKKPRMGQQVSDNFFRSHISTDAHSLNSAAQ [L501S]
The “8OG:A repair function score” value of the first is lower: -0.0132 for the first, 0.0215 for the second.

Going from MRKPRAAVGSGHRKQAASQEGRQKHAKNNSQAKPSACDGLARQPEEVVLQASVSSYHLFRDVAEVTAFRGSLLSWYDQEKRDLPWRRRAEDEMDLDRRAYAVWVSEVMLQQTQVATVINYYTGWMQKWPTLQDLASASLEEVNQLWAGLGYYSRGRRLQEGARKVVEELGGHMPRTAETLQQLLPGVGRYTAGAIASIAFGQATGVVDGNVARVLCRVRAIGADPSSTLVSQQLWGLAQQLVDPARPGDFNQAAMELGATVCTPQRPLCSQCPVESLCRARQRVEQEQLLASGSLSGSPDVEECAPNTGQCHLCLPPSEPWDQTLGVVNFPRKASRKPPREESSATCVLEQPGALGAQILLVQRPNSGLLAGLWEFPSVTWEPSEQLQRKALLQELQRWAGPLPATHLRHLGEVVHTFSHIKLTYQVYGLALEGQTPVTTVPPGARWLTQEEFHTAAVSTAMKKVFRVYQGQQPGTCMGSKRSQVSSPCSRKKPRMGQQVQDNFFRSHISTDAHSLNSAAQ [L501Q] to MRKPRAAVGSGHRKQAASQEGRQKHAKNNSQAKPSACDGLARQPEEVVLQASVSSYHLFRDVAEVTAFRGSLLSWYDQEKRDLPWRRRAEDEMDLDRRAYAVWVSEVMLQQTQVATVINYYTGWMQKWPTLQDLASASLEEVNQLWAGLGYYSRGRRLQEGARKVVEELGGHMPRTAETLQQLLPGVGRYTAGAIASIAFGQATGVVDGNVARVLCRVRAIGADPSSTLVSQQLWGLAQQLVDPARPGDFNQAAMELGATVCTPQRPLCSQCPVESLCRARQRVEQEQLLASGSLSGSPDVEECAPNTGQCHLCLPPSEPWDQTLGVVNFPRKASRKPPREESSATCVLEQPGALGAQILLVQRPNSGLLAGLWEFPSVTWEPSEQLQRKALLQELQRWAGPLPATHLRHLGEVVHTFSHIKLTYQVYGLALEGQTPVTTVPPGARWLTQEEFHTAAVSTAMKKVFRVYQGQQPGTCMGSKRSQVSSPCSRKKPRMGQQVTDNFFRSHISTDAHSLNSAAQ [L501T], the “8OG:A repair function score” value falls from 0.02 to -0.0124.
